Measured values taken from US20210246218A1.

Target: human FcγRIIB-Ile232 on CHO-K1 cells (human) (UniProt P31994)
Assay: flow cytometry on CHO-huFcγRIIB cells, anti-human Fc F(ab')2

human FcγRIIB-Ile232 on CHO-K1 cells (human), sequence (P31994 43-310): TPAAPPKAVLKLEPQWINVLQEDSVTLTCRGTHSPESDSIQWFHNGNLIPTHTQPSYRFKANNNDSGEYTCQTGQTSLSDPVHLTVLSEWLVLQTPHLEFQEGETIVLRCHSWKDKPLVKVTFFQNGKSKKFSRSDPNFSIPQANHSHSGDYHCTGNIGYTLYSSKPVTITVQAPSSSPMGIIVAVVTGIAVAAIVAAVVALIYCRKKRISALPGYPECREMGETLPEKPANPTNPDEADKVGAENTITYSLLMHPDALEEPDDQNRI

Avastin (antibody)
EC50 (read off the curve): 5 µg/mL
